Laboratory results published in patent US20140087995A1 (published 2014).
Numbered stars: 1 amine (or outer) side, 2 acyl side, 3 side chain; on linkers, the order of the positions; unused ones are H or OH. Bridge positions count the residues as written; N and C are the ends. Side chains are listed from the residue outwards. Ends that are not written are not given here. * marks the point of attachment. C20 diacid = O=C(O)CCCCCCCCCCCCCCCCCCC(=O)*; γGlu = O=C(O)[C@H](CCC(=O)[*:2])N[*:1]

T1: human amylin receptor (amylin 3(a) receptor: human calcitonin receptor plus RAMP-3) (human, UniProt P30988 25-474; O60896 24-148)
T1 sequence (looked up) 1: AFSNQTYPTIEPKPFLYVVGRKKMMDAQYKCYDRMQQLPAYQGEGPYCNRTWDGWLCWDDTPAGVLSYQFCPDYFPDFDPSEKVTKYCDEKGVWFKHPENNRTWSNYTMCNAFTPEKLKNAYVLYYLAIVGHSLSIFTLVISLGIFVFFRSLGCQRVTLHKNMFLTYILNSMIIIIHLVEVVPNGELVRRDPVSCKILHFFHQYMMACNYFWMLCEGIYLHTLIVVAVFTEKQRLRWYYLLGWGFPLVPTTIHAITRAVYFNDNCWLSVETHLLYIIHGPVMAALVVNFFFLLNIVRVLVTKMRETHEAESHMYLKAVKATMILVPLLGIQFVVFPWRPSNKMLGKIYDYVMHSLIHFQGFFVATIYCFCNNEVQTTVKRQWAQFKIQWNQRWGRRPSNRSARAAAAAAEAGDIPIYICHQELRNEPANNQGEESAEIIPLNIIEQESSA
T1 sequence (looked up) 2: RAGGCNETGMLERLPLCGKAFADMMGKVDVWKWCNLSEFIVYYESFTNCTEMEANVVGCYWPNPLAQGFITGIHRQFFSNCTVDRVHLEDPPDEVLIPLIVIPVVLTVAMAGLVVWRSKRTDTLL

T2: human calcitonin receptor (human, UniProt P30988 25-474)
T2 sequence (looked up): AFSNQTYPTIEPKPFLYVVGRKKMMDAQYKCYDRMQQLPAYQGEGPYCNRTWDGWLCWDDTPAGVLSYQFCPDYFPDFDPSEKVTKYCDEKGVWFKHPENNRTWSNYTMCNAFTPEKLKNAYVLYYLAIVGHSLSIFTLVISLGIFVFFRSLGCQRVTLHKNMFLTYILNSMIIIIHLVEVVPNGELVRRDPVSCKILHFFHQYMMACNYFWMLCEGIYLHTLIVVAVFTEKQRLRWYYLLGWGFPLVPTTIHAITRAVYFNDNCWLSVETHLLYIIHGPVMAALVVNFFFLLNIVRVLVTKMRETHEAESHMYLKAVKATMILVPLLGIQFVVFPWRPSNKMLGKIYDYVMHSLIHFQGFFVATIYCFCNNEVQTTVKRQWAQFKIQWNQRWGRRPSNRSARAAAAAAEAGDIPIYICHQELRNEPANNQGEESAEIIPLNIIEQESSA


Columns and labels:
[1] = target: T1, human amylin receptor (amylin 3(a) …); assay: cell-based or functional assay
[2] = target: T2, human calcitonin receptor; assay: cell-based or functional assay
[3] = target: T1, human amylin receptor (amylin 3(a) …); assay: SPA competition binding, displacement of 125I-rat amylin, membranes of BHK amylin 3(a)/CRE-luc cells
Procedure, shortened: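 Cell membranes were prepared by homogenisation in Na-HEPES/EDTA buffer, pH 7.4, and stored at −80° C. They were then coupled to SPA beads at 35 ng/μL final and exposed to compounds in assay buffer containing CaCl2, MgCl₂, OA and Tween20. After 120 min at 25° C, plates were counted and IC₅₀ derived.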

Row | Binder | Ratio hCT/hAmylin funct. [1] | hAmylin-R funct. EC50 (pM) [1] [pM] | hCTR funct. EC50 (pM) [2] [pM] | IC50 [3] [nM]
1 | K([γGlu-C20 diacid])CNTATCATQRLAEFLRHSSPNFGAIPSSTNVGPETY-NH2 (disulfide 2-7; N-terminus assumed; SMILES CC[C@H](C)[C@H](NC(=O)[C@H](C)NC(=O)CNC(=O)[C@H](Cc1ccccc1)NC(=O)[C@H](CC(N)=O)NC(=O)[C@@H]1CCCN1C(=O)[C@H](CO)NC(=O)[C@H](CO)NC(=O)[C@H](Cc1c[nH]cn1)NC(=O)[C@H](CCCNC(=N)N)NC(=O)[C@H](CC(C)C)NC(=O)[C@H](Cc1ccccc1)NC(=O)[C@H](CCC(=O)O)NC(=O)[C@H](C)NC(=O)[C@H](CC(C)C)NC(=O)[C@H](CCCNC(=N)N)NC(=O)[C@H](CCC(N)=O)NC(=O)[C@@H](NC(=O)[C@H](C)NC(=O)[C@@H]1CSSC[C@H](NC(=O)[C@@H](N)CCCCNC(=O)CC[C@H](NC(=O)CCCCCCCCCCCCCCCCCCC(=O)O)C(=O)O)C(=O)N[C@@H](CC(N)=O)C(=O)N[C@@H]([C@@H](C)O)C(=O)N[C@@H](C)C(=O)N[C@@H]([C@@H](C)O)C(=O)N1)[C@@H](C)O)C(=O)N1CCC[C@H]1C(=O)N[C@@H](CO)C(=O)N[C@@H](CO)C(=O)N[C@H](C(=O)N[C@@H](CC(N)=O)C(=O)N[C@H](C(=O)NCC(=O)N1CCC[C@H]1C(=O)N[C@@H](CCC(=O)O)C(=O)N[C@H](C(=O)N[C@@H](Cc1ccc(O)cc1)C(N)=O)[C@@H](C)O)C(C)C)[C@@H](C)O) | 5.2 | 161 | 841 | 0.14
2 | K([γGlu-C20 diacid])CNTATCATQRLAHFLRHSSPNFGAIPSSTNVGSHTY-NH2 (disulfide 2-7; N-terminus assumed; SMILES CC[C@H](C)[C@H](NC(=O)[C@H](C)NC(=O)CNC(=O)[C@H](Cc1ccccc1)NC(=O)[C@H](CC(N)=O)NC(=O)[C@@H]1CCCN1C(=O)[C@H](CO)NC(=O)[C@H](CO)NC(=O)[C@H](Cc1c[nH]cn1)NC(=O)[C@H](CCCNC(=N)N)NC(=O)[C@H](CC(C)C)NC(=O)[C@H](Cc1ccccc1)NC(=O)[C@H](Cc1c[nH]cn1)NC(=O)[C@H](C)NC(=O)[C@H](CC(C)C)NC(=O)[C@H](CCCNC(=N)N)NC(=O)[C@H](CCC(N)=O)NC(=O)[C@@H](NC(=O)[C@H](C)NC(=O)[C@@H]1CSSC[C@H](NC(=O)[C@@H](N)CCCCNC(=O)CC[C@H](NC(=O)CCCCCCCCCCCCCCCCCCC(=O)O)C(=O)O)C(=O)N[C@@H](CC(N)=O)C(=O)N[C@@H]([C@@H](C)O)C(=O)N[C@@H](C)C(=O)N[C@@H]([C@@H](C)O)C(=O)N1)[C@@H](C)O)C(=O)N1CCC[C@H]1C(=O)N[C@@H](CO)C(=O)N[C@@H](CO)C(=O)N[C@H](C(=O)N[C@@H](CC(N)=O)C(=O)N[C@H](C(=O)NCC(=O)N[C@@H](CO)C(=O)N[C@@H](Cc1c[nH]cn1)C(=O)N[C@H](C(=O)N[C@@H](Cc1ccc(O)cc1)C(N)=O)[C@@H](C)O)C(C)C)[C@@H](C)O, also called compound 66) | 20.1 | 27 | 542 | 0.396
3 | K([γGlu-γGlu-C20 diacid])CNTATCATQRLAEFLRHSSPNFGAIPSSTNVGRETY-NH2 (disulfide 2-7; N-terminus assumed; SMILES CC[C@H](C)[C@H](NC(=O)[C@H](C)NC(=O)CNC(=O)[C@H](Cc1ccccc1)NC(=O)[C@H](CC(N)=O)NC(=O)[C@@H]1CCCN1C(=O)[C@H](CO)NC(=O)[C@H](CO)NC(=O)[C@H](Cc1c[nH]cn1)NC(=O)[C@H](CCCNC(=N)N)NC(=O)[C@H](CC(C)C)NC(=O)[C@H](Cc1ccccc1)NC(=O)[C@H](CCC(=O)O)NC(=O)[C@H](C)NC(=O)[C@H](CC(C)C)NC(=O)[C@H](CCCNC(=N)N)NC(=O)[C@H](CCC(N)=O)NC(=O)[C@@H](NC(=O)[C@H](C)NC(=O)[C@@H]1CSSC[C@H](NC(=O)[C@@H](N)CCCCNC(=O)CC[C@H](NC(=O)CC[C@H](NC(=O)CCCCCCCCCCCCCCCCCCC(=O)O)C(=O)O)C(=O)O)C(=O)N[C@@H](CC(N)=O)C(=O)N[C@@H]([C@@H](C)O)C(=O)N[C@@H](C)C(=O)N[C@@H]([C@@H](C)O)C(=O)N1)[C@@H](C)O)C(=O)N1CCC[C@H]1C(=O)N[C@@H](CO)C(=O)N[C@@H](CO)C(=O)N[C@H](C(=O)N[C@@H](CC(N)=O)C(=O)N[C@H](C(=O)NCC(=O)N[C@@H](CCCNC(=N)N)C(=O)N[C@@H](CCC(=O)O)C(=O)N[C@H](C(=O)N[C@@H](Cc1ccc(O)cc1)C(N)=O)[C@@H](C)O)C(C)C)[C@@H](C)O) | – | 703 | 7430 | 0.957
4 | K([γGlu-γGlu-C20 diacid])CNTATCATQRLADFLRHSSPNFGAIPSSTNVGPETY-NH2 (disulfide 2-7) | 5.3 | 159 | 843 | 0.172
5 | K([γGlu-γGlu-C20 diacid])CNTATCATQRLAEFLRHSSPNFGAIPSSTNVGHETY-NH2 (disulfide 2-7; N-terminus assumed; SMILES CC[C@H](C)[C@H](NC(=O)[C@H](C)NC(=O)CNC(=O)[C@H](Cc1ccccc1)NC(=O)[C@H](CC(N)=O)NC(=O)[C@@H]1CCCN1C(=O)[C@H](CO)NC(=O)[C@H](CO)NC(=O)[C@H](Cc1c[nH]cn1)NC(=O)[C@H](CCCNC(=N)N)NC(=O)[C@H](CC(C)C)NC(=O)[C@H](Cc1ccccc1)NC(=O)[C@H](CCC(=O)O)NC(=O)[C@H](C)NC(=O)[C@H](CC(C)C)NC(=O)[C@H](CCCNC(=N)N)NC(=O)[C@H](CCC(N)=O)NC(=O)[C@@H](NC(=O)[C@H](C)NC(=O)[C@@H]1CSSC[C@H](NC(=O)[C@@H](N)CCCCNC(=O)CC[C@H](NC(=O)CC[C@H](NC(=O)CCCCCCCCCCCCCCCCCCC(=O)O)C(=O)O)C(=O)O)C(=O)N[C@@H](CC(N)=O)C(=O)N[C@@H]([C@@H](C)O)C(=O)N[C@@H](C)C(=O)N[C@@H]([C@@H](C)O)C(=O)N1)[C@@H](C)O)C(=O)N1CCC[C@H]1C(=O)N[C@@H](CO)C(=O)N[C@@H](CO)C(=O)N[C@H](C(=O)N[C@@H](CC(N)=O)C(=O)N[C@H](C(=O)NCC(=O)N[C@@H](Cc1c[nH]cn1)C(=O)N[C@@H](CCC(=O)O)C(=O)N[C@H](C(=O)N[C@@H](Cc1ccc(O)cc1)C(N)=O)[C@@H](C)O)C(C)C)[C@@H](C)O) | – | 445 | 7050 | 0.525
6 | K([γGlu-γGlu-C20 diacid])CNTATCATQRLAEFLRHSSPNFGAIPSSTNVGPETP-NH2 (disulfide 2-7; N-terminus assumed; SMILES CC[C@H](C)[C@H](NC(=O)[C@H](C)NC(=O)CNC(=O)[C@H](Cc1ccccc1)NC(=O)[C@H](CC(N)=O)NC(=O)[C@@H]1CCCN1C(=O)[C@H](CO)NC(=O)[C@H](CO)NC(=O)[C@H](Cc1c[nH]cn1)NC(=O)[C@H](CCCNC(=N)N)NC(=O)[C@H](CC(C)C)NC(=O)[C@H](Cc1ccccc1)NC(=O)[C@H](CCC(=O)O)NC(=O)[C@H](C)NC(=O)[C@H](CC(C)C)NC(=O)[C@H](CCCNC(=N)N)NC(=O)[C@H](CCC(N)=O)NC(=O)[C@@H](NC(=O)[C@H](C)NC(=O)[C@@H]1CSSC[C@H](NC(=O)[C@@H](N)CCCCNC(=O)CC[C@H](NC(=O)CC[C@H](NC(=O)CCCCCCCCCCCCCCCCCCC(=O)O)C(=O)O)C(=O)O)C(=O)N[C@@H](CC(N)=O)C(=O)N[C@@H]([C@@H](C)O)C(=O)N[C@@H](C)C(=O)N[C@@H]([C@@H](C)O)C(=O)N1)[C@@H](C)O)C(=O)N1CCC[C@H]1C(=O)N[C@@H](CO)C(=O)N[C@@H](CO)C(=O)N[C@H](C(=O)N[C@@H](CC(N)=O)C(=O)N[C@H](C(=O)NCC(=O)N1CCC[C@H]1C(=O)N[C@@H](CCC(=O)O)C(=O)N[C@H](C(=O)N1CCC[C@H]1C(N)=O)[C@@H](C)O)C(C)C)[C@@H](C)O) | 0.8 | 132 | 102 | 0.533
7 | K([γGlu-C20 diacid])CNTATCATQRLAEFLRHSSPNFGAIPSSTNVGPHTY-NH2 (disulfide 2-7) | – | 101 | 1450 | 0.179
